Where a SMILES comes first, the peptide text is derived from it.
How the values were obtained:
Assay in all cases: Kinase Profiling Assay
Format in all cases: biochemical
CDK2/cyclinA(h) = CDK2/cyclinA(h) (Homo sapiens, UniProt P24941); conditions: 100 μM peptide
Procedure, shortened: (§1)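 Peptides designed to inhibit MK2 were checked against a broad human kinase panel (266 enzymes), with duplicate measurement of every activity.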

CaMKI(h) = CaMKI(h) (Homo sapiens, UniProt Q14012); conditions: for CaMKI(h) % activity: 100 μM peptide
Procedure, shortened: as §1

CaMKIIδ(h) = CaMKIIδ(h) (Homo sapiens, UniProt Q13557); conditions: 100 μM peptide
Procedure, shortened: as §1

HIPK2(h) = target: T1, HIPK2(h) (Homo sapiens, UniProt Q9H2X6); conditions: 100 μM peptide
T1 construct: purchased Millipore
Procedure, shortened: as §1

IKKβ(h) = target: T2, IKKβ(h) (Homo sapiens, UniProt O14920); conditions: 100 μM peptide
T2 construct: purchased Millipore
T2 sequence (O14920 1-756): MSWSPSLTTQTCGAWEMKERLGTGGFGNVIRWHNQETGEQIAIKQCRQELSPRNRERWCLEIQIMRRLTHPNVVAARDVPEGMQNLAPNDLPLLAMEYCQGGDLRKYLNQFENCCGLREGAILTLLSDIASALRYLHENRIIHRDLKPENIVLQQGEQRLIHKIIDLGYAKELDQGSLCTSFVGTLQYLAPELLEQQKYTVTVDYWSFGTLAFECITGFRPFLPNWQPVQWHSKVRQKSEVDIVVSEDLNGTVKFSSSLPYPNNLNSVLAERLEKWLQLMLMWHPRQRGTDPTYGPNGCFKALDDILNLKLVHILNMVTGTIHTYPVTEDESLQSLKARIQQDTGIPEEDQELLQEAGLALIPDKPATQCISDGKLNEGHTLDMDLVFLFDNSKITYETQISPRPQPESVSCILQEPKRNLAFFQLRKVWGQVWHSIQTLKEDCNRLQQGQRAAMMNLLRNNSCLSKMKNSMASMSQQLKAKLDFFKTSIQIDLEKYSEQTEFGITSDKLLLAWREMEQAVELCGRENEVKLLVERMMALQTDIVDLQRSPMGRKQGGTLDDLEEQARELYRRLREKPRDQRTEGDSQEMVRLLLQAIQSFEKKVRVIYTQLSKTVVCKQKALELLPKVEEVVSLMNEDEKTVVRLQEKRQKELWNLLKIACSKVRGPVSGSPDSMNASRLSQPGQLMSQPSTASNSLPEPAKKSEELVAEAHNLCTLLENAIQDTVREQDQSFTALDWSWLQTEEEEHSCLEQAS
Procedure, shortened: as §1

MLCK(h) = MLCK(h) (Homo sapiens, UniProt Q9H1R3); conditions: 100 μM peptide
Procedure, shortened: as §1

Met(M1268T)(h) = Met(M1268T)(h) (Homo sapiens, UniProt P08581, M1250T); conditions: 100 μM peptide
Procedure, shortened: as §1

PKCβI(h) = PKCβI(h) (Homo sapiens, UniProt P05771); conditions: 100 μM peptide
Procedure, shortened: as §1

PrKX(h) = target: T3, PrKX(h) (Homo sapiens, UniProt P51817); conditions: 100 μM peptide
T3 construct: purchased Millipore (IC50 Profiler Express service)
T3 sequence (P51817 1-358): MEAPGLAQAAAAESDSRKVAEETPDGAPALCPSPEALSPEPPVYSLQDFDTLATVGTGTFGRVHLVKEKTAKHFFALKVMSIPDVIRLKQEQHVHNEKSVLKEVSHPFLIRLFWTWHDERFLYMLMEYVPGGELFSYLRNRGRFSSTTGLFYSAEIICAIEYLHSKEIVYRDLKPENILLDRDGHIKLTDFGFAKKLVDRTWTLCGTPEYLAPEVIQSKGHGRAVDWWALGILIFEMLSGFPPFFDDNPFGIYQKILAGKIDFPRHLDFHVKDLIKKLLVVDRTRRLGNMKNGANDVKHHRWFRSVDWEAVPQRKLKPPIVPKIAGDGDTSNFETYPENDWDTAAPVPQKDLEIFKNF
Procedure, shortened: as §1

ROCK-II(h) = target: T4, ROCK-II(h) (Homo sapiens, UniProt O75116); conditions: 100 μM peptide
T4 construct: purchased Millipore (IC50 Profiler Express service)
Procedure, shortened: as §1

TAK1(h) = target: T5, TAK1(h) (Homo sapiens, UniProt O43318); conditions: 100 μM peptide
T5 sequence (O43318 1-303 limits assumed): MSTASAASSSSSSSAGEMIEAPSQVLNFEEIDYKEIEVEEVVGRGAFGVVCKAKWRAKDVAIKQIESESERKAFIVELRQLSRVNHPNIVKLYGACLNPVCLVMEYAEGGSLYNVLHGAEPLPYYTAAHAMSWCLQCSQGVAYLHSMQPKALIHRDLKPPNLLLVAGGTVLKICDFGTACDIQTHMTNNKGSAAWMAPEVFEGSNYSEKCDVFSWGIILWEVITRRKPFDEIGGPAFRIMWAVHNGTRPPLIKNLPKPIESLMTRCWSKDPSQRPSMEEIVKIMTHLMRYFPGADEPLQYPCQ
Procedure, shortened: as §1

ZAP-70(h) = target: T6, ZAP-70(h) (Homo sapiens, UniProt P43403); conditions: 100 μM peptide
T6 sequence (P43403 1-619): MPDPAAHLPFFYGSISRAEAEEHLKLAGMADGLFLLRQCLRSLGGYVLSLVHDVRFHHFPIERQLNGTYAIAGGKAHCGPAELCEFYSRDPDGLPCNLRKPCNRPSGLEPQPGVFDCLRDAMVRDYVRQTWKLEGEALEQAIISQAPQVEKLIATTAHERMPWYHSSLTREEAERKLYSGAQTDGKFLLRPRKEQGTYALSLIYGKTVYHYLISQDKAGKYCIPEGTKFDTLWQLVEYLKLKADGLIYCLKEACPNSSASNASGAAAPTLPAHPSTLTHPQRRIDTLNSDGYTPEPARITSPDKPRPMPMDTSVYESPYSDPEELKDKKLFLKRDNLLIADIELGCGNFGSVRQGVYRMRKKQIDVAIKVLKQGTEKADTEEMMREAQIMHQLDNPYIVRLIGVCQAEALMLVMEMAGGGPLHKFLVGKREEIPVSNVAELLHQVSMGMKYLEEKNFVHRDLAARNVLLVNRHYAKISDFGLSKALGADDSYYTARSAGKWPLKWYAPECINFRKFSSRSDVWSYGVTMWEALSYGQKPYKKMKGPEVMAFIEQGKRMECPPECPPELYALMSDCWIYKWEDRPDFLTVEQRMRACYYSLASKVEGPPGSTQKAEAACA
Procedure, shortened: as §1

cKit(V654A)(h) = cKit(V654A)(h) (Homo sapiens, UniProt P10721, V654A); conditions: 100 μM peptide
Procedure, shortened: as §1

cKit(h) = cKit(h) (Homo sapiens, UniProt P10721); conditions: 100 μM peptide
Procedure, shortened: as §1

MLCK(h), sequence (Q9H1R3 2-596 limits assumed): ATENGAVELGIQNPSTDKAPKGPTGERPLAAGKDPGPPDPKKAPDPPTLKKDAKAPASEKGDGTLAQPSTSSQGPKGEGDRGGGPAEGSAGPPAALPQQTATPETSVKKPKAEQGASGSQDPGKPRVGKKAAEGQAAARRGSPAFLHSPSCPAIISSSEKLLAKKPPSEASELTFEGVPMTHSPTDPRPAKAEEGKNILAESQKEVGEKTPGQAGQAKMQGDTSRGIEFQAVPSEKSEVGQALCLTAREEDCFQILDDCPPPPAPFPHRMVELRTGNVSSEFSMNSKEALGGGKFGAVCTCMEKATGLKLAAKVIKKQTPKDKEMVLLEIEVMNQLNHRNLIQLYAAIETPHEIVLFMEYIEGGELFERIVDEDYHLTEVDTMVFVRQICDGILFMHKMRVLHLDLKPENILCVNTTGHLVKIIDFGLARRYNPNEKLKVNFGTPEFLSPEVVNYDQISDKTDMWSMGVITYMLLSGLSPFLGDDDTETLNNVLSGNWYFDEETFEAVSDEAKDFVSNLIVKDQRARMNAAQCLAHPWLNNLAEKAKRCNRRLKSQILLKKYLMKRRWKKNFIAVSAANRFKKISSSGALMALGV
CaMKIIδ(h), sequence (Q13557 whole entry): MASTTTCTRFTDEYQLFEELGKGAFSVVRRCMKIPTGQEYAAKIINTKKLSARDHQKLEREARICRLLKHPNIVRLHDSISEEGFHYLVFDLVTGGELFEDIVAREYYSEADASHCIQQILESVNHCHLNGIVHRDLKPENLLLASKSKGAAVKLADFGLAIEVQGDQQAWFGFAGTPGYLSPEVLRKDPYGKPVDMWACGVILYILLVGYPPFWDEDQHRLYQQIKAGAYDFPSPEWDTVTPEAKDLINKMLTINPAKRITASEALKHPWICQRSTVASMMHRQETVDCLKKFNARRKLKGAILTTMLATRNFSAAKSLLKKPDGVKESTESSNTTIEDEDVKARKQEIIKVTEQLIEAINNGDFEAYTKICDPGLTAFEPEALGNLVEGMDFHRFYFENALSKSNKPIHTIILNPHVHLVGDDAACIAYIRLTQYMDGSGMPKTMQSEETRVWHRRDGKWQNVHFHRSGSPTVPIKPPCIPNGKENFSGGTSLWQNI
T4 sequence (O75116 whole entry): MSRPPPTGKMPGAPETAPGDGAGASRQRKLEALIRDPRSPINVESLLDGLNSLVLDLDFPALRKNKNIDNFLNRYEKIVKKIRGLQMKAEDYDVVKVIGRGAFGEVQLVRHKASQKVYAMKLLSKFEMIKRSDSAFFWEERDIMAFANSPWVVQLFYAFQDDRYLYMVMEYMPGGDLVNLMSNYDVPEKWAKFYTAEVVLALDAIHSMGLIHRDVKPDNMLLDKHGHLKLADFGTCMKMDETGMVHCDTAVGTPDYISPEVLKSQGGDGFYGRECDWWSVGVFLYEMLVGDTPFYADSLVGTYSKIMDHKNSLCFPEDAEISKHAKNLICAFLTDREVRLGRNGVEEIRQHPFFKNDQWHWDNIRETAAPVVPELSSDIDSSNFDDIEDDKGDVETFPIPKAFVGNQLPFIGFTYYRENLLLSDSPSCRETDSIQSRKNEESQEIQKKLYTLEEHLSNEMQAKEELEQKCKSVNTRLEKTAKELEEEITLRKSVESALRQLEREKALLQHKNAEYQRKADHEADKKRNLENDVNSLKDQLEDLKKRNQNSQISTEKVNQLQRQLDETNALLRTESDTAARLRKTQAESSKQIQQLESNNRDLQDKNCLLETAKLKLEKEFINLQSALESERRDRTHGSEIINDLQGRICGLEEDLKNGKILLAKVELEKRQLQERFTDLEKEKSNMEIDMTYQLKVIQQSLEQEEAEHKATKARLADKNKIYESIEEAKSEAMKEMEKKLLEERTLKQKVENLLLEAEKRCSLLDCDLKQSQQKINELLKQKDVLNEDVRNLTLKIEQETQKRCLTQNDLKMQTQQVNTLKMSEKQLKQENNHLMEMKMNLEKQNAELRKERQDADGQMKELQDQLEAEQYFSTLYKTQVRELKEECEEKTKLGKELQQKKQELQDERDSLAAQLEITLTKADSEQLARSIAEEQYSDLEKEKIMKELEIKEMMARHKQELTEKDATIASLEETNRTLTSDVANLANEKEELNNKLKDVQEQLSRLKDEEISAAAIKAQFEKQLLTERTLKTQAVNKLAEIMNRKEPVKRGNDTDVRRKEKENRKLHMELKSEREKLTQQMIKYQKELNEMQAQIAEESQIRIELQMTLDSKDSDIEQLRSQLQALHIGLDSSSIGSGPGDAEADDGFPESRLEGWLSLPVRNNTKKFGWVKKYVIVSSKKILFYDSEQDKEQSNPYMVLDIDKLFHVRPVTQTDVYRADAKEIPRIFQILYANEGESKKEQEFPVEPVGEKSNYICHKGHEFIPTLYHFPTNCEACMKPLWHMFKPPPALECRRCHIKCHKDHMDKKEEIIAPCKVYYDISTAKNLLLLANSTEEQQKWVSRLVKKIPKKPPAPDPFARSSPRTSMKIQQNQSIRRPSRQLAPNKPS
T1 sequence (Q9H2X6 whole entry): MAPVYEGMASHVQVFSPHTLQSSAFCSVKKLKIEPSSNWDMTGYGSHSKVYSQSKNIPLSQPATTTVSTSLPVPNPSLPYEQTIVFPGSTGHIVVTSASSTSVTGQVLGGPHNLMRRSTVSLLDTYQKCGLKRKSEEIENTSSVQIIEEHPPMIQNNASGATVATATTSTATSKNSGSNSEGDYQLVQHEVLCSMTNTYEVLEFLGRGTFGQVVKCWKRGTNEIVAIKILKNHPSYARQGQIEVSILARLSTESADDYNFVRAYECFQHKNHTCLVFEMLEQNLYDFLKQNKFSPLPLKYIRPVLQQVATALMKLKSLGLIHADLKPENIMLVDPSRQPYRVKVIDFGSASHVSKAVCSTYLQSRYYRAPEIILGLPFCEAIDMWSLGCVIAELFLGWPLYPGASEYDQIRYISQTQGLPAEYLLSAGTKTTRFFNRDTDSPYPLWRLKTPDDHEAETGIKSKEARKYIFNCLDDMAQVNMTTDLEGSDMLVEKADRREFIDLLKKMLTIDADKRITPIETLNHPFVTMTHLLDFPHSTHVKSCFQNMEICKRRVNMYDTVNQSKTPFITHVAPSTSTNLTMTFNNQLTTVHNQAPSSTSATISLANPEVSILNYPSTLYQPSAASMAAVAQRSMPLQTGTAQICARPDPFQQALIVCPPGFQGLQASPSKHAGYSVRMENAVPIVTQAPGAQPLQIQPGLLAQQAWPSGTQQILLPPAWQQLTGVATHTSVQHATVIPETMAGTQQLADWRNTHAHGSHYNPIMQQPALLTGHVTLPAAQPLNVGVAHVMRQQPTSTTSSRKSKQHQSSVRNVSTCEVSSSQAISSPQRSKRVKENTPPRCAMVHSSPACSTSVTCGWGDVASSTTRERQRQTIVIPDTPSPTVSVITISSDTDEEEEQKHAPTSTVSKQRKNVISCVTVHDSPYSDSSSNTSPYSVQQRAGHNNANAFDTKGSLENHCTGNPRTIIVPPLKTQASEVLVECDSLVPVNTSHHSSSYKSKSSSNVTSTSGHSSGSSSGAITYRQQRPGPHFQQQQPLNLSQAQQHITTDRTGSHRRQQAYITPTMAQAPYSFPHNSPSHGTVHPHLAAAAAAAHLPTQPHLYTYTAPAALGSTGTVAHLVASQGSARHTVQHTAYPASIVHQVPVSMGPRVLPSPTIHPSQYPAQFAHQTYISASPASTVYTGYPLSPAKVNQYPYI
PKCβI(h), sequence (P05771 whole entry): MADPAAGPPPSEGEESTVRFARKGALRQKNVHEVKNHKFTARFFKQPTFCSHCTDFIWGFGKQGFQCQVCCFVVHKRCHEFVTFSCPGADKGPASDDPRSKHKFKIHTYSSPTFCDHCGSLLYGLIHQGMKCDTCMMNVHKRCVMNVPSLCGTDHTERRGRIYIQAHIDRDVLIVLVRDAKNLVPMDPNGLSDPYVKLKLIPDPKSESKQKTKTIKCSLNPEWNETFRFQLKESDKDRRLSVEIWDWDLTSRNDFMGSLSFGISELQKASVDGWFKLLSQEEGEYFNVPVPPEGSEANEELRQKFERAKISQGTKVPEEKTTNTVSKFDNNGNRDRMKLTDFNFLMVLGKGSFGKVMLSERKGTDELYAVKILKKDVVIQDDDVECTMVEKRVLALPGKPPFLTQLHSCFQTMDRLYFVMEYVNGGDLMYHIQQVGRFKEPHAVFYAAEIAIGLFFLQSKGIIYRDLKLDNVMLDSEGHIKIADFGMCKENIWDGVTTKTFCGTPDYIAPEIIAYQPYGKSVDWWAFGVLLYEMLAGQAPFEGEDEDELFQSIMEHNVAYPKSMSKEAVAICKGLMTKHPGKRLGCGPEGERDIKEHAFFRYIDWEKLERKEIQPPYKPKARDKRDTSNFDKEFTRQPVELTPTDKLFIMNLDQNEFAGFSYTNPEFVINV
CaMKI(h), sequence (Q14012 whole entry): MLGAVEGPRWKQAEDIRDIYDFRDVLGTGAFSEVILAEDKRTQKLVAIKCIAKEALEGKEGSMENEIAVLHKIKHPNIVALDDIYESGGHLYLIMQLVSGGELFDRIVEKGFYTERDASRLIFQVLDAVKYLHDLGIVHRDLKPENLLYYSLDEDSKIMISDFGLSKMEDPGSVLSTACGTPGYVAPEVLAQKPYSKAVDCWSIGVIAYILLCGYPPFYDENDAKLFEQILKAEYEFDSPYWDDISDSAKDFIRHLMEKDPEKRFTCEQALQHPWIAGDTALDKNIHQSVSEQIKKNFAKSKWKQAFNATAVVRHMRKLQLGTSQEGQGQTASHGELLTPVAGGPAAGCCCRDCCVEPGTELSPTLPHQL

Compound | CDK2/cyclinA(h) % activity (CDK2/cyclinA(h)) [%] | CaMKI(h) % activity (CaMKI(h)) [%] | CaMKIIδ(h) % activity (CaMKIIδ(h)) [%] | HIPK2(h) % activity (HIPK2(h)) [%] | IKKβ(h) % activity (IKKβ(h)) [%] | MLCK(h) % activity (MLCK(h)) [%] | Met(M1268T)(h) % activity (Met(M1268T)(h)) [%] | PKCβI(h) % activity (PKCβI(h)) [%] | PrKX(h) % activity (PrKX(h)) [%] | ROCK-II(h) % activity (ROCK-II(h)) [%] | TAK1(h) % activity (TAK1(h)) [%] | ZAP-70(h) % activity (ZAP-70(h)) [%] | cKit(V654A)(h) % activity (cKit(V654A)(h)) [%] | cKit(h) % activity (cKit(h)) [%] | inhibition at 100 µM (CaMKI(h); read-out: inhibition of kinase activity of CaMKI) [%]
KAFAKLAARLYRKALARQLGVAA [MMI-0400] | 92 | 0 | 2 | 90 | 84 | 1 | 265 | 78 | 76 | 77 | 177 | 33 | 150 | 43 | –
CC(C)C[C@H](NC(=O)[C@H](C)NC(=O)[C@H](CCCCN)NC(=O)[C@H](C)NC(=O)[C@H](CCCNC(=N)N)NC(=O)[C@H](C)NC(=O)[C@H](CCC(N)=O)NC(=O)[C@H](CCCNC(=N)N)NC(=O)[C@H](C)NC(=O)[C@H](C)NC(=O)[C@H](C)NC(=O)[C@H](CCCNC(=N)N)NC(=O)[C@H](C)NC(=O)[C@@H](N)Cc1ccc(O)cc1)C(=O)N[C@@H](C)C(=O)N[C@@H](CCCNC(=N)N)C(=O)N[C@@H](CCC(N)=O)C(=O)N[C@@H](CC(C)C)C(=O)NCC(=O)N[C@H](C(=O)N[C@@H](C)C(=O)N[C@@H](C)C(=O)O)C(C)C [MMI-0100] (H-YARAAARQARAKALARQLGVAA-OH; N-terminus and C-terminus assumed) | – | – | – | – | – | – | – | – | – | – | – | – | – | – | > 65
YARAAARQARAKALNRQLGVA (Mammalian) [MMI-0200] | – | 21 | 2 | – | – | – | 143 | 98 | – | 85 | 124 | 58 | – | 110 | –
FAKLAARLYRKALARQLGVAA [MMI-0300] | 86 | 1 | 1 | 73 | 84 | 2 | 255 | 78 | 61 | 74 | 122 | 75 | 134 | 53 | –
HRRIKAWLKKIKALARQLGVAA (Mammalian) [MMI-0500] | 87 | −1 | 1 | 38 | 71 | 0 | 239 | 1 | 57 | 2 | – | 1 | 223 | 45 | –

Reference: US10562947B2, “Compositions and methods for preventing or treating diseases, conditions or processes characterized by aberrant fibroblast proliferation and extracellular matrix deposition” (MOERAE MATRIX, INC., priority 2011, dated 2020)
